From patent publication US10287317B2, “Proprotein convertase subtilisin kexin type 9 (PCSK9) allosteric binding ligands to modulate serum low density lipoprotein (LDL) levels” (SRX Cardio, LLC, priority 2013, dated 2019)
Where no end group is shown, it is not given here.

Molecular target: PCSK9-D374Y protein (Homo sapiens, UniProt Q8NBP7, D374Y)
Test: Cellular diI-LDL uptake in HuH7 cells with PCSK9-D374Y
Format: cell-based
Method: HuH7 cells were incubated in a 96-well plate for a total of 20 h in the absence (Cnt) or presence of 0.5 μg/ml PCSK9-D374Y protein alone (DY) or mixed with 100 uM of various SRX peptides. After 16 h, dil-LDL (5 ug/ml) was added to the incubation mixtures. After 4 h, fluorescence was measured (Ex: 520 nm/Em: 575 nm; cutoff: 550 nm). Dil-LDL uptake is calculated as RFU corrected for the number of cells.
HuH7 cells were incubated in a 96-well plate for a total of 20 h in the absence (Cnt) or presence of 0.5 μg/ml PCSK9 GOF-D374Y protein alone (DY) or mixed with increasing concentrations of various SRX peptides. After 16 h, dil-LDL (5 ug/ml) was added to the incubation mixtures. After 4 h, fluorescence was measured (Ex: 520 nm/Em: 575 nm; cutoff: 550 nm). Dil-LDL uptake is calculated as RFU corrected for the number of cells.
LDL internalization was measured by uptake of a fluorescently tagged LDL molecule (diI-LDL) in the absence of exogenous PCSK9 (Cnt), in the presence of exogenous PCSK9 (normal PCSK9=WT, D374Y mutant PCSK9=DY), or in the presence of PCSK9 and a tested peptide (indicated as SRX##, or SRX if a single peptide results is shown in a graph).
Cells, such as HepG2, HuH7, FL83B or a cell line transfected with a short-hairpin PCSK9 knockdown sequence such as HepG2/shPCSK9, HuH7/shPCSK9, FL83B/shPCSK9, were seeded at 2×10^4 cells/well in a 96-well plate and cultured at 37 degC in RPMI+10% FBS. After approximately 24 hours, the cell media was aspirated off and replaced with RPMI+3-5 mg/mL LPDS (Lipoprotein Deficient Serum, Millipore) media for further experimentation. Benjannet et al., “Effects of the prosegment and pH on the activity of PCSK9: evidence for additional processing events” J Biol Chem. 285(52): 40965-40978 (2010).
Peptide activity was assessed by culturing cells with: i) no SRX peptide/PCSK9 protein complex (control, Cnt); ii) PCSK9 protein; and iii) SRX peptide/PCSK9 complex. Various permutations of these experimental conditions were also used, including: i) the addition of wild type PCSK9 (WT); ii) a mutant PCSK9 (e.g., D374Y mutant PCSK9, DY); iii) various SRX peptides and/or PCSK9 at the same concentration and/or combinations; iv) various SRX peptides and/or PCSK9 at different concentrations and/or combinations; v) the use of different cells, as mentioned above, with or without a transfected short-hairpin sequence; vi) a pre-incubation of the PCSK9 and SRX peptide (e.g., 1, hour, 2 hours, 3 hours, 4 hours etc.); vii) various temperatures including, but not limited to, body temperature (e.g., 37° C.), supraphysiologic temperature (e.g., 39° C.); and viii) with/without agitation (e.g., shaker or gentle periodic vortexing).
Cells were cultured using one of the combinations of conditions described in the preceding paragraph for 16 hours. After 16 hours, a quantity of diI-LDL (Low density lipoprotein coupled with 1,1′-dioctadecyl-3,3,3′,3′-tetramethylindocarbocyanine perchlorate) needed to bring the media concentration to 5 ug/mL of diI-LDL was added to the culture well and cells continued to be cultured under these new conditions for 4 additional hours. At the end of the 4-hour incubation period (20 total hours of cell culture), the cellular uptake was halted with the addition of 4% formaldehyde in 10 uM Hoechst 33342 in a solvent such as deionized autoclaved water or PBS, and specimens were incubated at 20° C. for 20 minutes. Cell specimens were rinsed twice with PBS and then fluorescence measured with excitation at 360 nm and emission detected at 460 nm to measure DNA content. Cell specimens were then be incubated with a 0.1% SDS in a 0.1 N NaOH solution while being shaken for 10 minutes. Fluorescence of the diI-LDL in the specimens were quantified using excitation at 530 nm and resulting emission at 580 nm.
Fluorescence measurements of diI-LDLR were normalized to estimated cell numbers, determined from the Hoechst fluorescence. […]

PCSK9-D374Y protein, sequence (Q8NBP7 153-692 D374Y): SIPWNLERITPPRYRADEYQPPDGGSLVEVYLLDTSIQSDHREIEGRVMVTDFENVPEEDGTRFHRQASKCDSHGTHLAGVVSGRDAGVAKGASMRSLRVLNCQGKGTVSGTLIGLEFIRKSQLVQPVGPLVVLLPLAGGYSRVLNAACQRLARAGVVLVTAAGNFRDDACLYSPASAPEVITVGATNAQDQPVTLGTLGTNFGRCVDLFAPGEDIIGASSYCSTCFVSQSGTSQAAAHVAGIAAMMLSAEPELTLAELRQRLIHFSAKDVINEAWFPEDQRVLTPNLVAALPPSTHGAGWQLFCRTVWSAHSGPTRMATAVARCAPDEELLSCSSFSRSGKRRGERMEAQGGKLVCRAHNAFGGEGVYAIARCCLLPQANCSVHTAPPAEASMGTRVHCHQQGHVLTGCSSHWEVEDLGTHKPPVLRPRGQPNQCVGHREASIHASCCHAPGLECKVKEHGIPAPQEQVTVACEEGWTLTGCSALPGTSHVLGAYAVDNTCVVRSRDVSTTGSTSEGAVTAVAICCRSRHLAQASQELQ

Val-Tyr-Val-Arg-Phe-Trp (VYVRFW; not fully specified (C-terminus); printed as Val-Tyr-Val-Arg-Phe-Trp) [Compound 1]
LDL internalization (dil-LDL % uptake vs Cnt) (HuH7, 0.5 μg/ml PCSK9-D374Y, 100 uM peptide (FIG. 3)): positively modulated (increased) | LDL internalization (dil-LDL % uptake vs Cnt) (HuH7, 0.5 μg/ml PCSK9 GOF-D374Y, increasing concentrations of peptide (FIG. 4)): positively modulated (increased) | dose dependence of positive modulation of LDL internalization (HuH7, PCSK9 GOF-D374Y (FIG. 4)): positive modulation in a dose dependent manner | percent inhibition (dil-LDL uptake) (HuH7, PCSK9 GOF-D374Y, peptide at 11.1 uM (FIG. 4 bottom panel)): ~0%
